From PMC5499601 (Nucleic Acids Research, 2017)

Assays:
Assay in all cases: EMSA
BsSpo0J R79A = target: T1, BsSpo0J R79A (UniProt P26497 1-282, R79A)
T1 sequence: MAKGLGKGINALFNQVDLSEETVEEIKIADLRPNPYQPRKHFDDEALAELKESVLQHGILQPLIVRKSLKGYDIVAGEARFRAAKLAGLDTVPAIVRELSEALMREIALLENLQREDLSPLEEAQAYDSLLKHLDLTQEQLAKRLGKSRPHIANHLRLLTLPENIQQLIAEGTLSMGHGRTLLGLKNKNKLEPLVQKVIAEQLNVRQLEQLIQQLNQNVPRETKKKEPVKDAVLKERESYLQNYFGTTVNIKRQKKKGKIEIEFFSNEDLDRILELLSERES

BsSpo0J V75A = target: T2, BsSpo0J V75A (UniProt P26497 1-282, V75A)
T2 sequence: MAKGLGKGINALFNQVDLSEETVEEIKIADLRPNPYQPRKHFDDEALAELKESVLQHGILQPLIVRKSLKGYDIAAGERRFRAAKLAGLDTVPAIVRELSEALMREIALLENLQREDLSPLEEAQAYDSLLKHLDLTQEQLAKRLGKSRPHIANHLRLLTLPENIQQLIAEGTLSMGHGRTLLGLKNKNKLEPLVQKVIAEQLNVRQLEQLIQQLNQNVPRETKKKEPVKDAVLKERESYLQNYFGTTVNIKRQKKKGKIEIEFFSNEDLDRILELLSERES

BsSpo0J N112S = target: T3, BsSpo0J N112S (UniProt P26497 1-282, N112S)
T3 sequence: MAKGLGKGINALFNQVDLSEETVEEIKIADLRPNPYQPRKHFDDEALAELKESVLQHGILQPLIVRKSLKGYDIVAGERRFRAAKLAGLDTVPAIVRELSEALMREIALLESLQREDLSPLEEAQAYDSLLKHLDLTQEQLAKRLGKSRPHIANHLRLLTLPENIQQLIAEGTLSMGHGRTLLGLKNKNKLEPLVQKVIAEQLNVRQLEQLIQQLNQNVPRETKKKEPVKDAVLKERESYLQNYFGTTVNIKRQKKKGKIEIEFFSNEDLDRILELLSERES

BsSpo0J H57E = target: T4, BsSpo0J H57E (UniProt P26497 1-282, H57E)
T4 sequence: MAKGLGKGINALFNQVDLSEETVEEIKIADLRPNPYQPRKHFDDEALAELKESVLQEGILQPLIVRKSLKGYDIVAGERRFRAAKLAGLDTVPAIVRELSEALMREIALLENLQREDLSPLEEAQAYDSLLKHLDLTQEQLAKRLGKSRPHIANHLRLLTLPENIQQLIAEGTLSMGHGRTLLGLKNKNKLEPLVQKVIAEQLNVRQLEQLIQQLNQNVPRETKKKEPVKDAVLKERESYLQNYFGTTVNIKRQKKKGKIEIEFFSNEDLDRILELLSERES

BsSpo0J Q61R = target: T5, BsSpo0J Q61R (UniProt P26497 1-282, Q61R)
T5 sequence: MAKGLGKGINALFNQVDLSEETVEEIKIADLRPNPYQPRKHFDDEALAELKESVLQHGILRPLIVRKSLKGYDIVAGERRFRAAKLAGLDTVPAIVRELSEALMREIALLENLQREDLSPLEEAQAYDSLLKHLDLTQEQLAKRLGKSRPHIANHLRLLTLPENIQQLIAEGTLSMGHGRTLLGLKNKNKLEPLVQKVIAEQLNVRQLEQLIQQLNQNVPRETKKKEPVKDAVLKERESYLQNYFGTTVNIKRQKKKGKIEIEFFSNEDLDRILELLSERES

BsSpo0J R105E = target: T6, BsSpo0J R105E (UniProt P26497 1-282, R105E)
T6 sequence: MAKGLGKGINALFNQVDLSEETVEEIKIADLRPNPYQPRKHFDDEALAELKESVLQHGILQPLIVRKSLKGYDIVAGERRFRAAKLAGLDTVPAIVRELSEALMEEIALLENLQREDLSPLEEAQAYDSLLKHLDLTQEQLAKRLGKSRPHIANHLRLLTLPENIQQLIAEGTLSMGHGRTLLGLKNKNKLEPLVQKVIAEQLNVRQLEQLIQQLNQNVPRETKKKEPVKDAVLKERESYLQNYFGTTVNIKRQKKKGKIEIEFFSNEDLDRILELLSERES

BsSpo0J R105A = target: T7, BsSpo0J R105A (UniProt P26497 1-282, R105A)
T7 sequence: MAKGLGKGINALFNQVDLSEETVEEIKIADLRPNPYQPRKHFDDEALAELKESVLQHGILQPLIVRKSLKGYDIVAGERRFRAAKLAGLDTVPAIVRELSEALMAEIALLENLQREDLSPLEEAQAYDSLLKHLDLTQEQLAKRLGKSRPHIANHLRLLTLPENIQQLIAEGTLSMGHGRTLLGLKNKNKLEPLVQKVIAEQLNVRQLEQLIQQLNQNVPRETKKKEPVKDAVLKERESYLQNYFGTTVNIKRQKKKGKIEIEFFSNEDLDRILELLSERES

BsSpo0J E52R = target: T8, BsSpo0J E52R (UniProt P26497 1-282, E52R)
T8 sequence: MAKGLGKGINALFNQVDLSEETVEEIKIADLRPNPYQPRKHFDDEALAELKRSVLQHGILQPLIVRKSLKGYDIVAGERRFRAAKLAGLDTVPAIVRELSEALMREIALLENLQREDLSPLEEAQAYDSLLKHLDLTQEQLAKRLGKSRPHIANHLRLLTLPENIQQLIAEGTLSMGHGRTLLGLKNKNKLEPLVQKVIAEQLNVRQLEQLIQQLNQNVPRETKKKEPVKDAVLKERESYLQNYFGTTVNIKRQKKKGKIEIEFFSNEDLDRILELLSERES

BsSpo0J M104A = target: T9, BsSpo0J M104A (UniProt P26497 1-282, M104A)
T9 sequence: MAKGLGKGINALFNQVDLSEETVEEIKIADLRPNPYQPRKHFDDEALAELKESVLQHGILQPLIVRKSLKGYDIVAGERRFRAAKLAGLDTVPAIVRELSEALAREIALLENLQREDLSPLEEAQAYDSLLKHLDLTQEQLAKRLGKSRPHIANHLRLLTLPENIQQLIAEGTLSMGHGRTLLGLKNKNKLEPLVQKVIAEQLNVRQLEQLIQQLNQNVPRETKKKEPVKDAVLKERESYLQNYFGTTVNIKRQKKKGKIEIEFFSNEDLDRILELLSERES

Measured: binding result

B1: 24-bp parS (dsDNA)
DNA 1: AGAATGTTCCACGTGAAACAAAGA
DNA 2: TCTTTGTTTCACGTGGAACATTCT
binds: all assays above
